Data published in paper PMC10657180.

Experiments:
[1] = target: neddylated CUL1-RBX1 with the FBXW7-SKP1 substrate receptor (human) (UniProt Q13616)
[2] = target: neddylated CUL2-RBX1 in complex with the KLHDC2-ELONGIN B/C substrate receptor (human) (UniProt Q13617)
[3] = target: neddylated CUL2-RBX1 in complex with the VHL-ELONGIN B/C substrate receptor (human) (UniProt Q13617)

Chain of ARIH1 (Q9Y4X5 whole entry): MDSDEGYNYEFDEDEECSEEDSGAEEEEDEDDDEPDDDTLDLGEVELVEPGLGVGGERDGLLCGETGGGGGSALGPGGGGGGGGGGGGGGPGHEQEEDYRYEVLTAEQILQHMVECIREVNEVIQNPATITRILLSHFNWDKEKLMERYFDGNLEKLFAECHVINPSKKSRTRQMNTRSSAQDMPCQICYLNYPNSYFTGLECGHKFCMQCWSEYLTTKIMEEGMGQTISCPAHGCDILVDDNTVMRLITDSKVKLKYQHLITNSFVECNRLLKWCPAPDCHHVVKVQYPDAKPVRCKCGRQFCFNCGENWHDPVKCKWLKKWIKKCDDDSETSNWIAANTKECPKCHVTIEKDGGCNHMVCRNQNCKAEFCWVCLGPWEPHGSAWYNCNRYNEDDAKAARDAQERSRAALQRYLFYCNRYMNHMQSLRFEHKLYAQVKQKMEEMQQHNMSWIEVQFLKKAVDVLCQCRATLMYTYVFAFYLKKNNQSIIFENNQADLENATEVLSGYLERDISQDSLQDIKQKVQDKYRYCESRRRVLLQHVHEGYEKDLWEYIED

Km of ARIH1 for the CRL-substrate complex (single-encounter ubiquitylation, ARIH1 titrated, 10 s, Michaelis-Menten fit); peptide on the CRL: KR Lys 387 cycE [1] [µM] | Km of ARIH1 for the CRL-substrate complex (single-encounter ubiquitylation, ARIH1 titrated, 10 s, Michaelis-Menten fit); peptide on the CRL: KR Ser 387 cycE [1] [µM] | Km of ARIH1 for the CRL-substrate complex (single-encounter ubiquitylation, ARIH1 titrated, 10 s, Michaelis-Menten fit); peptide on the CRL: Lys only cycE [1] [µM] | Km of ARIH1 for the CRL-substrate complex (single-encounter ubiquitylation without cold competitor peptide, ARIH1 titrated, 10 s, Michaelis-Menten fit); peptide on the CRL: Arg47 Arg48 SelK [2] [µM] | Km of ARIH1 for the CRL-substrate complex (single-encounter ubiquitylation without cold competitor peptide, ARIH1 titrated, 10 s, Michaelis-Menten fit); peptide on the CRL: Lys47 Arg48 SelK [2] [µM] | Km of ARIH1 for the CRL-substrate complex (single-encounter ubiquitylation, ARIH1 titrated, 10 s, Michaelis-Menten fit); peptide on the CRL: NSer Hif1α [3] [µM] | Km of ARIH1 for the CRL-substrate complex (single-encounter ubiquitylation, ARIH1 titrated, 10 s, Michaelis-Menten fit); peptide on the CRL: WT Hif1α [3] [µM] | Substance
1.12 | 1.19 | 0.544 | – | – | – | – | A397D/K398I/A399V ARIH1 (from UniProt Q9Y4X5 1-557) (enzyme)
– | – | – | 0.391 | 0.268 | 0.66 | 0.403 | ARIH1 (from UniProt Q9Y4X5 1-557) (enzyme)
1.56 | 0.461 | 1.22 | – | – | – | – | K342A/E343A ARIH1 (from UniProt Q9Y4X5 1-557) (enzyme)
0.874 | 1.04 | 0.98 | – | – | – | – | N358A ARIH1 (from UniProt Q9Y4X5 1-557) (enzyme)
